Here are results for 8 molecules from patent US20180258163A1 (Chugai, published 2018).

First the molecules themselves.
T1: soluble human FcγRIIb (human, UniProt P31994 43-217, limits assumed)
T1 construct: soluble His-tagged form; also called hFcγRIIb
T1 sequence (looked up): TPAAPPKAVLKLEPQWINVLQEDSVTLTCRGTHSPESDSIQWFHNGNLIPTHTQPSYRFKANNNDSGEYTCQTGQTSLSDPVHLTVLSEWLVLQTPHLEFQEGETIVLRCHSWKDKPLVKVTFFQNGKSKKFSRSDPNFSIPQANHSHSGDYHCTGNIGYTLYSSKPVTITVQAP

B1: Ab1H-P910/Ab1L (antibody, human IgG1, kappa, name in EU numbering)
heavy: QVQLVESGGGLVQPGGSLRLSCAASGFTLSNHDMTWVRQAPGKGLEYVSIINTYGNHWYANWASGRFTISRDNSKNTVYLQIDSLRAEDTATYYCARETHHGSSGIDHWGQGTLVTVSSASTKGPSVFPLAPSSKSTSGGTAALGCLVKDYFPEPVTVSWNSGALTSGVHTFPAVLQSSGLYSLSSVVTVPSSSLGTQTYICNVNHKPSNTKVDKKVEPKSCDKTHTCPPCPAPELLGGDSVFLFPPKPKDTLMISRTPEVTCVVVDVSHEDPEVKFNWYVDGVEVHNAKTKPREEQYNATYRVVSVLTVRHQDWLNGKEYKCKVSNKALPAPIEKTISKAKGQPREPQVYTLPPSREEMTKNQVSLTCLVKGFYPSDIAVEWESNGQPENNYKTTPPVLDSDGSFFLYSKLTVDKSRWQQGNVFSCSVMHEALHNHYTQKSLSLSP
light: DIQMTQSPSSVSASVGDRVTITCQASESIYSGLAWYQQKPGQPPKLLIYDHSTLASGVPSRFSGSGSGTEYALTISSLQPEDFATYYCQHADYAHHSDNVFGGGTKVEIKRTVAAPSVFIFPPSDEQLKSGTASVVCLLNNFYPREAKVQWKVDNALQSGNSQESVTEQDSKDSTYSLSSTLTLSKADYEKHKVYACEVTHQGLSSPVTKSFNRGEC
notes: copies: 2 + 2
B2: Ab1H-P914/Ab1L (antibody, human IgG1, kappa, name in EU numbering)
heavy: QVQLVESGGGLVQPGGSLRLSCAASGFTLSNHDMTWVRQAPGKGLEYVSIINTYGNHWYANWASGRFTISRDNSKNTVYLQIDSLRAEDTATYYCARETHHGSSGIDHWGQGTLVTVSSASTKGPSVFPLAPSSKSTSGGTAALGCLVKDYFPEPVTVSWNSGALTSGVHTFPAVLQSSGLYSLSSVVTVPSSSLGTQTYICNVNHKPSNTKVDKKVEPKSCDKTHTCPPCPAPELLGGDSVFLFPPKPKDTLMISRTPEVTCVVVDVSHEDPEVKFNWYVDGVEVHNAKTKPREEQYNATYRVVSVLTVLHQDWLNGKEYKCKVSNKALPAPIEKTISKAKGQPREPQVYTLPPSREEMTKNQVSLTCLVKGFYPSDIAVEWESNGQPENNYKTTPPVLRSDGSFFLYSKLTVDKSRWQQGNVFSCSVMHEALHNHYTQKSLSLSP
light: DIQMTQSPSSVSASVGDRVTITCQASESIYSGLAWYQQKPGQPPKLLIYDHSTLASGVPSRFSGSGSGTEYALTISSLQPEDFATYYCQHADYAHHSDNVFGGGTKVEIKRTVAAPSVFIFPPSDEQLKSGTASVVCLLNNFYPREAKVQWKVDNALQSGNSQESVTEQDSKDSTYSLSSTLTLSKADYEKHKVYACEVTHQGLSSPVTKSFNRGEC
notes: copies: 2 + 2
B3: Ab1H-P915/Ab1L (antibody, human IgG1, kappa, name in EU numbering)
heavy: QVQLVESGGGLVQPGGSLRLSCAASGFTLSNHDMTWVRQAPGKGLEYVSIINTYGNHWYANWASGRFTISRDNSKNTVYLQIDSLRAEDTATYYCARETHHGSSGIDHWGQGTLVTVSSASTKGPSVFPLAPSSKSTSGGTAALGCLVKDYFPEPVTVSWNSGALTSGVHTFPAVLQSSGLYSLSSVVTVPSSSLGTQTYICNVNHKPSNTKVDKKVEPKSCDKTHTCPPCPAPELLGGDSVFLFPPKPKDTLMISRTPEVTCVVVDVSHEDPEVKFNWYVDGVEVHNAKTKPREEQYNATYRVVSVLTVLHQDWLNGKEYKCKVSNKALPAPIEKTISKAKGQPREPQVYTLPPSREEMTKNQVSLTCLVKGFYPSDIAVEWESNGQPENNYKTTPPVLDRDGSFFLYSKLTVDKSRWQQGNVFSCSVMHEALHNHYTQKSLSLSP
light: DIQMTQSPSSVSASVGDRVTITCQASESIYSGLAWYQQKPGQPPKLLIYDHSTLASGVPSRFSGSGSGTEYALTISSLQPEDFATYYCQHADYAHHSDNVFGGGTKVEIKRTVAAPSVFIFPPSDEQLKSGTASVVCLLNNFYPREAKVQWKVDNALQSGNSQESVTEQDSKDSTYSLSSTLTLSKADYEKHKVYACEVTHQGLSSPVTKSFNRGEC
notes: copies: 2 + 2
B4: Ab1H-P920/Ab1L (antibody, human IgG1, kappa, name in EU numbering)
heavy: QVQLVESGGGLVQPGGSLRLSCAASGFTLSNHDMTWVRQAPGKGLEYVSIINTYGNHWYANWASGRFTISRDNSKNTVYLQIDSLRAEDTATYYCARETHHGSSGIDHWGQGTLVTVSSASTKGPSVFPLAPSSKSTSGGTAALGCLVKDYFPEPVTVSWNSGALTSGVHTFPAVLQSSGLYSLSSVVTVPSSSLGTQTYICNVNHKPSNTKVDKKVEPKSCDKTHTCPPCPAPELLGGDSVFLFPPKPKDTLMISRTPEVTCVVVDVSHEDPEVKFNWYVDGVEVHNAKTKPREEQYNATYRVVSVLTVLHQDWLNGKEYKCKVSNKALPRPIEKTISKAKGQPREPQVYTLPPSREEMTKNQVSLTCLVKGFYPSDIAVEWESNGQPENNYKTTPPVLDSDGSFFLYSKLTVDKSRWQQGNVFSCSVMHEALHNHYTQKSLSLSP
light: DIQMTQSPSSVSASVGDRVTITCQASESIYSGLAWYQQKPGQPPKLLIYDHSTLASGVPSRFSGSGSGTEYALTISSLQPEDFATYYCQHADYAHHSDNVFGGGTKVEIKRTVAAPSVFIFPPSDEQLKSGTASVVCLLNNFYPREAKVQWKVDNALQSGNSQESVTEQDSKDSTYSLSSTLTLSKADYEKHKVYACEVTHQGLSSPVTKSFNRGEC
notes: copies: 2 + 2
B5: Ab1H-P912/Ab1L (antibody, human IgG1, kappa, name in EU numbering)
heavy: QVQLVESGGGLVQPGGSLRLSCAASGFTLSNHDMTWVRQAPGKGLEYVSIINTYGNHWYANWASGRFTISRDNSKNTVYLQIDSLRAEDTATYYCARETHHGSSGIDHWGQGTLVTVSSASTKGPSVFPLAPSSKSTSGGTAALGCLVKDYFPEPVTVSWNSGALTSGVHTFPAVLQSSGLYSLSSVVTVPSSSLGTQTYICNVNHKPSNTKVDKKVEPKSCDKTHTCPPCPAPELLGGDSVFLFPPKPKDTLMISRTPEVTCVVVDVSHEDPEVKFNWYVDGVEVHNAKTKPREEQYNATYRVVSVLRVLHQDWLNGKEYKCKVSNKALPAPIEKTISKAKGQPREPQVYTLPPSREEMTKNQVSLTCLVKGFYPSDIAVEWESNGQPENNYKTTPPVLDSDGSFFLYSKLTVDKSRWQQGNVFSCSVMHEALHNHYTQKSLSLSP
light: DIQMTQSPSSVSASVGDRVTITCQASESIYSGLAWYQQKPGQPPKLLIYDHSTLASGVPSRFSGSGSGTEYALTISSLQPEDFATYYCQHADYAHHSDNVFGGGTKVEIKRTVAAPSVFIFPPSDEQLKSGTASVVCLLNNFYPREAKVQWKVDNALQSGNSQESVTEQDSKDSTYSLSSTLTLSKADYEKHKVYACEVTHQGLSSPVTKSFNRGEC
notes: copies: 2 + 2
B6: Ab1H-P917/Ab1L (antibody, human IgG1, kappa, name in EU numbering)
heavy: QVQLVESGGGLVQPGGSLRLSCAASGFTLSNHDMTWVRQAPGKGLEYVSIINTYGNHWYANWASGRFTISRDNSKNTVYLQIDSLRAEDTATYYCARETHHGSSGIDHWGQGTLVTVSSASTKGPSVFPLAPSSKSTSGGTAALGCLVKDYFPEPVTVSWNSGALTSGVHTFPAVLQSSGLYSLSSVVTVPSSSLGTQTYICNVNHKPSNTKVDKKVEPKSCDKTHTCPPCPAPELLGGDSVFLFPPKPKDTLMISRTPEVTCVVVDVSHEDPEVKFNWYVDGVEVHNAKTKPREEQYNATYRVVSVLTVLHQDWLNGKEYKCKVSNKRLPAPIEKTISKAKGQPREPQVYTLPPSREEMTKNQVSLTCLVKGFYPSDIAVEWESNGQPENNYKTTPPVLDSDGSFFLYSKLTVDKSRWQQGNVFSCSVMHEALHNHYTQKSLSLSP
light: DIQMTQSPSSVSASVGDRVTITCQASESIYSGLAWYQQKPGQPPKLLIYDHSTLASGVPSRFSGSGSGTEYALTISSLQPEDFATYYCQHADYAHHSDNVFGGGTKVEIKRTVAAPSVFIFPPSDEQLKSGTASVVCLLNNFYPREAKVQWKVDNALQSGNSQESVTEQDSKDSTYSLSSTLTLSKADYEKHKVYACEVTHQGLSSPVTKSFNRGEC
notes: copies: 2 + 2
B7: Ab1H-P918/Ab1L (antibody, human IgG1, kappa, name in EU numbering)
heavy: QVQLVESGGGLVQPGGSLRLSCAASGFTLSNHDMTWVRQAPGKGLEYVSIINTYGNHWYANWASGRFTISRDNSKNTVYLQIDSLRAEDTATYYCARETHHGSSGIDHWGQGTLVTVSSASTKGPSVFPLAPSSKSTSGGTAALGCLVKDYFPEPVTVSWNSGALTSGVHTFPAVLQSSGLYSLSSVVTVPSSSLGTQTYICNVNHKPSNTKVDKKVEPKSCDKTHTCPPCPAPELLGGDSVFLFPPKPKDTLMISRTPEVTCVVVDVSHEDPEVKFNWYVDGVEVHNAKTKPREEQYNATYRVVSVLTVLHQDWLNGKEYKCKVSNKARPAPIEKTISKAKGQPREPQVYTLPPSREEMTKNQVSLTCLVKGFYPSDIAVEWESNGQPENNYKTTPPVLDSDGSFFLYSKLTVDKSRWQQGNVFSCSVMHEALHNHYTQKSLSLSP
light: DIQMTQSPSSVSASVGDRVTITCQASESIYSGLAWYQQKPGQPPKLLIYDHSTLASGVPSRFSGSGSGTEYALTISSLQPEDFATYYCQHADYAHHSDNVFGGGTKVEIKRTVAAPSVFIFPPSDEQLKSGTASVVCLLNNFYPREAKVQWKVDNALQSGNSQESVTEQDSKDSTYSLSSTLTLSKADYEKHKVYACEVTHQGLSSPVTKSFNRGEC
notes: copies: 2 + 2
B8: Ab1H-P919/Ab1L (antibody, human IgG1, kappa, name in EU numbering)
heavy: QVQLVESGGGLVQPGGSLRLSCAASGFTLSNHDMTWVRQAPGKGLEYVSIINTYGNHWYANWASGRFTISRDNSKNTVYLQIDSLRAEDTATYYCARETHHGSSGIDHWGQGTLVTVSSASTKGPSVFPLAPSSKSTSGGTAALGCLVKDYFPEPVTVSWNSGALTSGVHTFPAVLQSSGLYSLSSVVTVPSSSLGTQTYICNVNHKPSNTKVDKKVEPKSCDKTHTCPPCPAPELLGGDSVFLFPPKPKDTLMISRTPEVTCVVVDVSHEDPEVKFNWYVDGVEVHNAKTKPREEQYNATYRVVSVLTVLHQDWLNGKEYKCKVSNKALRAPIEKTISKAKGQPREPQVYTLPPSREEMTKNQVSLTCLVKGFYPSDIAVEWESNGQPENNYKTTPPVLDSDGSFFLYSKLTVDKSRWQQGNVFSCSVMHEALHNHYTQKSLSLSP
light: DIQMTQSPSSVSASVGDRVTITCQASESIYSGLAWYQQKPGQPPKLLIYDHSTLASGVPSRFSGSGSGTEYALTISSLQPEDFATYYCQHADYAHHSDNVFGGGTKVEIKRTVAAPSVFIFPPSDEQLKSGTASVVCLLNNFYPREAKVQWKVDNALQSGNSQESVTEQDSKDSTYSLSSTLTLSKADYEKHKVYACEVTHQGLSSPVTKSFNRGEC
notes: copies: 2 + 2

This assay deals with T1, soluble human FcγRIIb. Nature of the assay: SPR, Ab-IgE complex over captured hFcγRIIb, pH 7.4, 25C. The method, then:
Fc region variant-containing antibody binding assays between soluble human FcγRIIb (a.k.a. “hFcγRIIb”) and antigen-antibody complexes were performed using BIACORE® T200 (GE Healthcare). Soluble hFcγRIIb was produced in the form of a His-tagged molecule using methods known in the art. An appropriate amount of an anti-His antibody was fixed onto Sensor chip CM5 (GE Healthcare) by the amine coupling method using a His capture kit (GE Healthcare) to capture hFcγRIIb. Next, an antibody-antigen complex and a running buffer (as a reference solution) was injected, and interaction was allowed to take place with the hFcγRIIb captured onto the sensor chip. 20 mM N-(2-Acetamido)-2-aminoethanesulfonic acid, 150 mM NaCl, 1.2 mM CaCl₂, and 0.05% (w/v) Tween 20 at pH 7.4 was used as the running buffer, and the respective buffer was also used to dilute the soluble hFcγRIIb. To regenerate the sensor chip, 10 mM glycine-HCl at pH 1.5 was used. All measurements were carried out at 25° C. Analyses were performed based on binding (RU) calculated from sensorgrains obtained by the measurements, and relative values when the binding amount of P600 was defined as 1.00 are shown. To calculate the parameters, the BIACORE® T100 Evaluation Software (GE Healthcare) was used.
(SPR reads the build-up and loss of mass on a sensor chip optically.)
Turning to B1, the “relative binding (RU), P600=1.00” value is 1.73 fold. With B2 the figure was 1.72 fold; with B3, 0.85 fold. B4: the “relative binding (RU), P600=1.00” value was 0.01 fold. The result for B5 reads 0.24 fold. With B6 the figure was -0.05 fold; with B7, -0.06 fold; with B8, -0.06 fold.
